Assay results from US20180057579A1 (Pfizer, published 2018).
Substitutions are numbered along the chain they refer to. Names may count otherwise. Values belong to the binder of their own block, whether it stands above or below them.

Assays:
[1] = molecular target: T1, Growth and differentiation factor-8 (GDF-8), mature human (human, UniProt O14793 267-375, conjugated to biotin in the ActRIIB ELISA and in the Fc gamma receptor SPR (site not stated)); experiment: SPR (BIACORE 3000), antibody captured with anti-mouse IgG, GDF-8 flowed, 1:1 Langmuir fit
T1 construct: also called myostatin; human GDF-8

[2] = molecular target: T1, Growth and differentiation factor-8 …; experiment: cell-based or functional assay
[3] = molecular target: T1, Growth and differentiation factor-8 …; experiment: competition ELISA: antibody inhibits biotin-GDF-8 (10 ng/ml) binding to coated ActRIIB-Fc
[4] = molecular target: T1, Growth and differentiation factor-8 …; experiment: SPR (BIACORE 3000), captured antibody, GDF-8 flowed, 1:1 Langmuir fit
[5] = molecular target: T1, Growth and differentiation factor-8 …; experiment: SPR (BIACORE 3000), antibody captured on protein A, GDF-8 flowed, 1:1 Langmuir fit
[6] = molecular target: T1, Growth and differentiation factor-8 …; experiment: cell-based or functional assay; remark: listed apart in the source
[7] = molecular target: T2, CD32b (Fc gamma receptor) (UniProt P31994 43-217); experiment: SPR (Biacore T200), OGD1.0.0 captured on biotin-GDF-8 on an SA chip, receptor flowed
T2 sequence (looked up): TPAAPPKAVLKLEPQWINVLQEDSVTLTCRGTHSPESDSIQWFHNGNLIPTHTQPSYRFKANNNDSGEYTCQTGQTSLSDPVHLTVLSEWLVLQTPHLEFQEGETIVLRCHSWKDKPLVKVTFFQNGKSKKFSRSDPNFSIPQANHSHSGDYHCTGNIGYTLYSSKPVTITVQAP

[8] = molecular target: T1, Growth and differentiation factor-8 …; experiment: SPR
[9] = molecular target: T3, CD16a-158V (Fc gamma receptor) (UniProt P08637 17-208); experiment: SPR (Biacore T200), OGD1.0.0 captured on biotin-GDF-8 on an SA chip, receptor flowed, single-cycle kinetics
T3 construct: The 158V allotype is as printed

CD64 (Fc gamma receptor) = CD64 (Fc gamma receptor) (UniProt P12314 16-288, limits assumed); experiment: as above
[10] = molecular target: T4, CD32a-131H (Fc gamma receptor) (UniProt P12318 34-217); experiment: as above
T4 construct: The 131H allotype is as printed
T4 sequence (looked up): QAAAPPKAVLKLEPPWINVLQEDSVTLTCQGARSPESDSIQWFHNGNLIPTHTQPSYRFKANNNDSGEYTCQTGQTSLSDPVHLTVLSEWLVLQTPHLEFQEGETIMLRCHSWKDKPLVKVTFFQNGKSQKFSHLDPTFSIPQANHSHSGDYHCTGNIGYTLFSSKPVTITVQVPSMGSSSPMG

[11] = molecular target: T1, Growth and differentiation factor-8 …; experiment: competition ELISA (GDF-8 / ActRIIB-Fc)
[12] = molecular target: T1, Growth and differentiation factor-8 …; experiment: competition ELISA

B1: Murine anti-GDF-8 monoclonal antibody (parental murine antibody) (antibody, V domains shown)
VH: EVQLVESGGGLVKPGGSLKLSCAASGFTFSSYAMSWVRQTPEKRLEWVATISSGGSYTSYPDSVKGRFTISRDNAKNTLYLQMSSLRSEDTAMYYCARQDYAMNYWGQGTSVTVSS
VL: DIEMTQSHKFMSTSVGDRVSITCKASQDVSTAVAWYQQKPGQSPKLLLYSASYRYTGVPDRFTGSGSGTDFTFTISSVQAEDLAVYYCQQHYSTPWTFGGGTKLEIK
notes: also called mouse anti-GDF-8 antibody
Kd [1]: 0.0218 nM
CAGA EC50 [2]: 33.5 nM
IC50 [3]: 0.165 nM

B2: Chimeric mouse-human anti-GDF-8 antibody (murine variable domains and human constant domains) (antibody, human IgG1, V domains shown)
VH: B1 VH
VL: B1 VL
notes: also called Chimeric antibody
CAGA EC50 [2]: 24.2 nM
Kd [4]: 0.00299 nM
IC50 [3]: 0.165 nM

B3: OGD1.0.0 humanized anti-GDF-8 antibody (VH0 and VL0) (antibody, human IgG1, kappa)
heavy: EVQLLESGGGLVQPGGSLRLSCAASGFTFSSYAMSWVRQAPGKGLEWVSTISSGGSYTSYPDSVKGRFTISRDNSKNTLYLQMNSLRAEDTAVYYCAKQDYAMNYWGQGTLVTVSSASTKGPSVFPLAPSSKSTSGGTAALGCLVKDYFPEPVTVSWNSGALTSGVHTFPAVLQSSGLYSLSSVVTVPSSSLGTQTYICNVNHKPSNTKVDKKVEPKSCDKTHTCPPCPAPEAAGAPSVFLFPPKPKDTLMISRTPEVTCVVVDVSHEDPEVKFNWYVDGVEVHNAKTKPREEQYNSTYRVVSVLTVLHQDWLNGKEYKCKVSNKALPAPIEKTISKAKGQPREPQVYTLPPSREEMTKNQVSLTCLVKGFYPSDIAVEWESNGQPENNYKTTPPVLDSDGSFFLYSKLTVDKSRWQQGNVFSCSVMHEALHNHYTQKSLSLSPGK
light: DIQMTQSPSSLSASVGDRVTITCKASQDVSTAVAWYQQKPGKAPKLLIYSASYRYTGVPSRFSGSGSGTDFTLTISSLQPEDFATYYCQQHYSTPWTFGGGTKVEIKRTVAAPSVFIFPPSDEQLKSGTASVVCLLNNFYPREAKVQWKVDNALQSGNSQESVTEQDSKDSTYSLSSTLTLSKADYEKHKVYACEVTHQGLSSPVTKSFNRGEC
notes: also called OGD1.0.0 antibody
Kd [5]: 0.00259 nM
IC50 by reporter gene assay compared to OGD1.0.0 [6]: 1 fold of OGD1.0.0
Kd [7]: > 21000 nM
CAGA EC50 [2]: 27.3 nM
Kd [8]: 0.00259 nM
IC50 [3]: 0.14 nM
binding result [9]: no binding (tested: 0-21 µM)
binding result (CD64 (Fc gamma receptor)): no binding (tested: 0-270 nM)
binding result [10]: no binding (tested: 0-21 µM)
IC50 by ELISA compared to OGD1.0.0 [11]: 1 fold of OGD1.0.0

B5: OGD1.0.2 humanized anti-GDF-8 antibody (VH0 and VL2) (antibody, V domains shown)
VH: EVQLLESGGGLVQPGGSLRLSCAASGFTFSSYAMSWVRQAPGKGLEWVSTISSGGSYTSYPDSVKGRFTISRDNSKNTLYLQMNSLRAEDTAVYYCAKQDYAMNYWGQGTLVTVSS
VL: DIQMTQSPSSLSASVGDRVTITCKASQDVSTAVAWYQQKPGKAPKLLIYAASSLQSGVPSRFSGSGSGTDFTLTISSLQPEDFATYYCQQHYSTPWTFGGGTKVEIK
notes: Intact antibody produced in COS-1 cells
IC50 by reporter gene assay compared to OGD1.0.0 [6]: 1.03 fold of OGD1.0.0
Kd [8]: 0.00146 nM
IC50 by ELISA compared to OGD1.0.0 [11]: 0.91 fold of OGD1.0.0

Second part, the binder after the results:

Kd [5]: 0.00725 nM
CAGA EC50 [2]: 26 nM
IC50 [3]: 0.14 nM
B4: OGD1.1.1 humanized anti-GDF-8 antibody (VH1 and VL1) (antibody, human IgG1, kappa)
heavy: B3 heavy with L111M
light: B3 light with G100Q

IC50 by reporter gene assay compared to OGD1.0.0 [6]: 0.85 fold of OGD1.0.0
Kd [8]: 0.00317 nM
IC50 by ELISA compared to OGD1.0.0 [11]: 0.96 fold of OGD1.0.0
B6: OGD1.0.3 humanized anti-GDF-8 antibody (VH0 and VL3) (antibody, V domains shown)
VH: B5 VH
VL: B5 VL with K24R, D28S, V29I, V33L, A34N, A50S, H91S

IC50 by reporter gene assay compared to OGD1.0.0 [6]: 1.54 fold of OGD1.0.0
Kd [8]: 0.00246 nM
IC50 by ELISA compared to OGD1.0.0 [11]: 0.61 fold of OGD1.0.0
B7: OGD1.0.4 humanized anti-GDF-8 antibody (VH0 and VL4) (antibody, V domains shown)
VH: B5 VH
VL: not shown
notes: VL4 is VL3 with S50A

Kd [8]: 0.057 nM
IC50 by ELISA compared to OGD1.0.0 [11]: 5.94 fold of OGD1.0.0
B8: OGD1.0.5 humanized anti-GDF-8 antibody (VH0 and VL5) (antibody, V domains shown)
VH: B5 VH
VL: B5 VL with K24R, D28S, V29I, V33L, A34N, A50S, H91S, W96L
notes: VL5 is VL3 with W96L

binding result [12]: binds
B9: OGD1.3.0 humanized anti-GDF-8 antibody (VH3 and VL0) (antibody, V domains shown)
VH: B5 VH with T50A, G54S, S56G, S59Y, P61A
VL: B5 VL with A50S, S53Y, L54R, Q55Y, S56T

IC50 by reporter gene assay compared to OGD1.0.0 [6]: 7.5 fold of OGD1.0.0
Kd [8]: 0.284 nM
IC50 by ELISA compared to OGD1.0.0 [11]: 1.71 fold of OGD1.0.0
B10: OGD1.4.0 humanized anti-GDF-8 antibody (VH4 and VL0) (antibody, V domains shown)
VH: B5 VH with M103F, N104D
VL: B5 VL with A50S, S53Y, L54R, Q55Y, S56T
notes: VH4 carries M99F and N101D in CDR3
